According to patent US11013692B2, “Method of drug formulation based on increasing the affinity of crystalline microparticle surfaces for active agents” (MannKind Corporation, priority 2005, dated 2021):
Where no end group is shown, it is not given here.

Columns and labels:
[1] = at the concentrations used; cited from earlier work
[2] = Saturation curves for adsorption of active agent onto FDKP microparticles at pH 5.0; assay type: physicochemical; conditions: pH 5.0, constant 5 mg/mL FDKP microparticles (FIGS. 7A-7D)
Protocol: When the hydration water is displaced by adsorption of the active agent, its structure relaxes and produces a net decrease in the ultrasonic velocity through the sample. […] These studies were conducted at pH 5.0 where optimal adsorption of the active agent to microparticles is observed.

[3] = Resuspension of dried active agent-coated FDKP microparticles in acid solution or water (filtration, HPLC); assay type: physicochemical; conditions: for Resuspended in Acidic solution, integrated HPLC peak area / Resuspended in water, integrated HPLC peak area: filtrate; for Resuspended in Acidic solution, integrated HPLC peak area / Redissolved after filtering away acidic solution, integrated HPLC peak area: final pH about 2.0, 215 nm; for Resuspended in water, integrated HPLC peak area / Redissolved after filtering away water, integrated HPLC peak area: final pH about 4.5, 215 nm; for Redissolved after filtering away acidic solution, integrated HPLC peak area / Redissolved after filtering away water, integrated HPLC peak area: retained particles dissolved; for Active Agent Standard solution, integrated HPLC peak area: 215 nm
Protocol: The solvent was filtered from these suspensions and the retained particles were dissolved and collected. The amount of active agent in all of these samples was quantitated by HPLC.
For each of the lots, the active agent was released from the particles in the acidic solution. Therefore, by protonating the surfaces of the microcrystals, the active agent desorbs from the crystal surfaces.

[4] = Adsorption onto FDKP microparticles at pH 5.0 with increasing salt (sodium chloride); assay type: physicochemical; conditions: pH 5.0, 5 mg/mL FDKP microparticles, sodium chloride (FIGS. 8A-8D)
Protocol: Each sample contained a different quantity of salt (sodium chloride), as indicated under each bar in FIGS. 8A-8D (units are mM). […] After a brief incubation, unbound active agent was removed by filtration and the particles with adsorbed active agent were redissolved. The amount of active agent and particle recovered was quantitated by HPLC, and expressed as a mass ratio (% loading).
This can be interpreted as evidence that the salt competed with the active agent for interaction with the particle surface. As the salt concentration was increased, it competed strongly and effectively for surface binding sites, and essentially displaced the active agent from the particle surfaces. It is also speculated, that decrease binding of the active agent to microparticle may be attributable to Debye shielding.

[5] = Insulin binding to FDKP particles at different pH (unbound insulin in supernatant by HPLC); assay type: physicochemical
[6] = pH dependence of adsorption onto FDKP microparticles with excess protein (retentate mass ratio by HPLC); assay type: physicochemical; conditions: for type of monolayer formed: 5 mg/mL FDKP, 2 mg/mL protein
Protocol: (An excess of protein, as referred to herein, is that amount over what is believed to be necessary to form a monolayer covering the accessible surface of the FDKP microparticle). After incubation, non-adsorbed protein was removed by filtration. The solids retained on the filter (retentate) were dissolved and the amounts of FDKP microparticles and protein retained on the filter were quantitated by HPLC. The protein/particle mass ratio was determined from this quantitation.
Insulin was adsorbed (loaded) onto FDKP microparticles in a pH-controlled process by mixing an aqueous suspension of FDKP microparticles with an aqueous solution of insulin. […] The solid particles with adsorbed insulin were recovered from the filter (retentate), dissolved and collected. The amounts of insulin and dissolved FDKP microparticles were quantitated by HPLC. The amount of adsorbed insulin was calculated as a fraction of the total mass of retentate.

[7] = Ultrasonic glacial acetic acid titration of FDKP particles + insulin; assay type: physicochemical; conditions: 10 mg/mL FDKP, 1 mg/mL insulin; reduced interaction below about pH 2.9
Protocol: This suspension was introduced into an ultrasonic spectrometer. While stirring gently, glacial acetic acid was gradually added in 5 μL aliquots to lower the pH. At each step in the titration ultrasonic data was collected.
The change in ultrasonic velocity was related (proportional) to the amount of surface area (hydration water) of the particles and/or macromolecules in the sample. […] This additional surface area was from free insulin in the suspension.

| Substance | adsorption as active agent concentration is increased [2] | Resuspended in Acidic solution, integrated HPLC peak area [3] | Resuspended in water, integrated HPLC peak area [3] | Redissolved after filtering away acidic solution, integrated HPLC peak area [3] | Redissolved after filtering away water, integrated HPLC peak area [3] | Active Agent Standard solution, integrated HPLC peak area [3] | effect of increasing ionic strength on adsorption [4] | other results |
| --- | --- | --- | --- | --- | --- | --- | --- | --- |
| GLP-1: glucagon-like peptide 1 | reached saturation | – | – | – | – | – | – | self association [1]: does not self associate |
| Insulin Aspart: a fast-acting type of insulin | – | 893 mAU * sec | 0 mAU * sec | 29 mAU * sec | 982 mAU * sec | 1099 mAU * sec | – | – |
| PTH: parathyroid hormone | reached saturation | – | – | – | – | – | reduced the extent of adsorption | – |
| ghrelin: ghrelin, active agent adsorbed onto FDKP microparticles (GSSFLSPEHQRVQQRKESKKPPAKLQPR; ends and bridges not checked; UniProt Q9UBU3 24-51, looked up) | – | – | – | – | – | – | reduced the extent of adsorption | – |
| insulin: protein active agent adsorbed onto FDKP microparticles | – | 980 mAU * sec | 4 mAU * sec | 49 mAU * sec | 936 mAU * sec | 1103 mAU * sec | – | pH at which substantially complete binding is achieved ([5]; insulin on FDKP particles): ≥ 4.2; insulin adsorbed from solution onto the particles ([5]; pH 3.6): approximately 75%; pH dependence of adsorption ([6]; 5 mg/mL FDKP particles at varying pH, excess active agent (FIGS. 4A-D)): increased as a function of pH; type of monolayer formed ([6]; pH 3.5 through pH 4.5): non-continuous monolayers; type of monolayer formed ([6]; pH 5.0): continuous monolayer; pH of association of protein with FDKP microparticles [7]: greater than 2.9 |
